B1: TRIB1 (parent)
chain: EIGTSDQIVPEYQEDSDISSFFC
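Further: lentivirally expressed fusions sorted by FACS into six bins by GFP to DsRed ratio, PSI derived from sequencing read proportions per bin multiplied by bin number.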

The variants in the series derive from B1. In words: protein stability index of a GFP-peptide fusion (GPS, HEK-293T) (PSI 1-6); higher = more stable. Particulars: c terminus: native.
Turning to EIGTSDQIVPSYQEDSDISSFFC [E11S], the protein stability index turned out to be 3.1.
Next, EIGTSDQIVPGYQEDSDISSFFC [E11G]: 2.25; EIGTSDQIVPTYQEDSDISSFFC [E11T]: 2.77.
The same measure for EIGTSDQIVPWYQEDSDISSFFC [E11W]: 4.16.
Next, EIGTSDQIVPAYQEDSDISSFFC [E11A]: 4.09.
For the variant EIGTSDQIVPPYQEDSDISSFFC [E11P], the protein stability index was found to be 3.5.
Take EIGTSDQIVPFYQEDSDISSFFC [E11F]: the protein stability index worked out at 3.63.
EIGTSDQIVPRYQEDSDISSFFC [E11R]: the protein stability index turned out to be 3.68.
Turning to EIGTSDQIVPVYQEDSDISSFFC [E11V], the protein stability index came out at 2.52.
The same measure for EIGTSDQIVPLYQEDSDISSFFC [E11L]: 4.33.
The same measure for EIGTSDQIVPKYQEDSDISSFFC [E11K]: 4.4.
Next, EIGTSDQIVPCYQEDSDISSFFC [E11C]: 2.61; EIGTSDQIVPYYQEDSDISSFFC [E11Y]: 3.46; EIGTSDQIVPDYQEDSDISSFFC [E11D]: 2.18.
Consider EIGTSDQIVPHYQEDSDISSFFC [E11H], for which the protein stability index is 3.79.
As for EIGTSDQIVPMYQEDSDISSFFC [E11M], the protein stability index is 3.43.
With EIGTSDQIVPQYQEDSDISSFFC [E11Q], the protein stability index amounted to 3.12.
Next, EIGTSDQIVPEYIEDSDISSFFC [Q13I]: 2.36.
Consider EIGTSDQIVPEYVEDSDISSFFC [Q13V], for which the protein stability index is 2.52.
The same measure for EIGTSDQIVPEYYEDSDISSFFC [Q13Y]: 2.12.
Next, EIGTSDQIVPEYPEDSDISSFFC [Q13P]: 3.5.
On to EIGTSDQIVPEYAEDSDISSFFC [Q13A], for which the protein stability index came out at 2.54.
Next, EIGTSDQIVPEYWEDSDISSFFC [Q13W]: 1.72; EIGTSDQIVPEYEEDSDISSFFC [Q13E]: 2.77; EIGTSDQIVPEYNEDSDISSFFC [Q13N]: 1.9.
The same measure for EIGTSDQIVPEYLEDSDISSFFC [Q13L]: 2.77.
On to EIGTSDQIVPEYCEDSDISSFFC [Q13C], for which the protein stability index worked out at 2.59.
Next, EIGTSDQIVPEYSEDSDISSFFC [Q13S]: 2.43; EIGTSDQIVPEYREDSDISSFFC [Q13R]: 2.92; EIGTSDQIVPEYDEDSDISSFFC [Q13D]: 2.9.
Next, EIGTSDQIVPEYTEDSDISSFFC [Q13T]: 1.97.
For the variant EIGTSDQIVPEYHEDSDISSFFC [Q13H], the protein stability index stood at 2.24.
Next, EIGTSDQIVPEYGEDSDISSFFC [Q13G]: 2.13; EIGTSDQIVPEYKEDSDISSFFC [Q13K]: 3.39.
EIGTSDQIVPEYFEDSDISSFFC [Q13F]: the protein stability index was determined as 1.81.
The same measure for EIGTSDQIVPEYMEDSDISSFFC [Q13M]: 2.36.
The same measure for EIGTSDQIWPEYQEDSDISSFFC [V9W]: 4.34.
The same measure for EIGTSDQISPEYQEDSDISSFFC [V9S]: 5.26.
On to EIGTSDQITPEYQEDSDISSFFC [V9T], for which the protein stability index is 5.53.
Next, EIGTSDQIYPEYQEDSDISSFFC [V9Y]: 5.2.
Next, EIGTSDQIVPEYQDDSDISSFFC [E14D]: 2.65; EIGTSDQIVPEYQFDSDISSFFC [E14F]: 2.33; EIGTSDQIVPEYQVDSDISSFFC [E14V]: 2.08.
Next, EIGTSDQIVPEYQLDSDISSFFC [E14L]: 1.99; EIGTSDQIVPEYQMDSDISSFFC [E14M]: 2.4.
Regarding EIGTSDQIVPEYQIDSDISSFFC [E14I], the protein stability index stood at 1.68.
With EIGTSDQIVPEYQSDSDISSFFC [E14S], the protein stability index was determined as 2.88.
Regarding EIGTSDQIVPEYQGDSDISSFFC [E14G], the protein stability index was determined as 2.83.
Turning to EIGTSDQIVPEYQKDSDISSFFC [E14K], the protein stability index came to 4.03.
As for EIGTSDQIVPEYQTDSDISSFFC [E14T], the protein stability index was 2.81.
For the variant EIGTSDQIVPEYQRDSDISSFFC [E14R], the protein stability index was determined as 4.42.
The same measure for EIGTSDQIVPEYQQDSDISSFFC [E14Q]: 3.37.
Next, EIGTSDQIVPEYQYDSDISSFFC [E14Y]: 2.43; EIGTSDQIVPEYQHDSDISSFFC [E14H]: 3.56; EIGTSDQIVPEYQWDSDISSFFC [E14W]: 1.7.
Next, EIGTSDQIVPEYQNDSDISSFFC [E14N]: 2.94.
Turning to EIGTSDQIVPEYQPDSDISSFFC [E14P], the protein stability index came out at 2.
EIGTSDQIVPEYQADSDISSFFC [E14A]: the protein stability index is 2.81.
The same measure for EIGTSDQIVPEYQCDSDISSFFC [E14C]: 2.48; for EIGTSDQIVPEYQEDPDISSFFC [S16P]: 1.86; for EIGTSDQIVPEYQEDADISSFFC [S16A]: 3.03.
For the variant EIGTSDQIVPEYQEDQDISSFFC [S16Q], the protein stability index worked out at 3.32.
The same measure for EIGTSDQIVPEYQEDHDISSFFC [S16H]: 2.68; for EIGTSDQIVPEYQEDLDISSFFC [S16L]: 2.65.
On to EIGTSDQIVPEYQEDDDISSFFC [S16D], for which the protein stability index amounted to 2.15.
The same measure for EIGTSDQIVPEYQEDMDISSFFC [S16M]: 2.45; for EIGTSDQIVPEYQEDKDISSFFC [S16K]: 3.5; for EIGTSDQIVPEYQEDVDISSFFC [S16V]: 3.02.
The same measure for EIGTSDQIVPEYQEDTDISSFFC [S16T]: 2.56; for EIGTSDQIVPEYQEDFDISSFFC [S16F]: 2.6.
On to EIGTSDQIVPEYQEDEDISSFFC [S16E], for which the protein stability index was 1.75.
Next, EIGTSDQIVPEYQEDCDISSFFC [S16C]: 2.41; EIGTSDQIVPEYQEDIDISSFFC [S16I]: 2.04; EIGTSDQIVPEYQEDYDISSFFC [S16Y]: 2.28.
For the variant EIGTSDQIVPEYQEDGDISSFFC [S16G], the protein stability index stood at 2.9.
Next, EIGTSDQIVPEYQEDNDISSFFC [S16N]: 2.68.
On to EIGTSDQIVPEYQEDWDISSFFC [S16W], for which the protein stability index amounted to 2.27.
Turning to EIGTSDQIVPEYQEDRDISSFFC [S16R], the protein stability index worked out at 4.11.
Regarding EIGTSDQIVDEYQEDSDISSFFC [P10D], the protein stability index worked out at 5.63.
The same measure for EIGTSDQIVCEYQEDSDISSFFC [P10C]: 5.2.
Next, EIGTSDQIVIEYQEDSDISSFFC [P10I]: 4.09.
Take EIGTSDQIVGEYQEDSDISSFFC [P10G]: the protein stability index was determined as 4.82.
Next, EIGTSDQIVEEYQEDSDISSFFC [P10E]: 5.54; EIGTSDQIVQEYQEDSDISSFFC [P10Q]: 4.9; EIGTSDQIVHEYQEDSDISSFFC [P10H]: 5.41.
EIGTSDQIVKEYQEDSDISSFFC [P10K]: the protein stability index worked out at 5.56.
In the case of EIGTSDQIVLEYQEDSDISSFFC [P10L], the protein stability index worked out at 4.87.
Regarding EIGTSDQIVNEYQEDSDISSFFC [P10N], the protein stability index was found to be 5.23.
Take EIGTSDQIVSEYQEDSDISSFFC [P10S]: the protein stability index worked out at 5.59.
In the case of EIGTSDQIVYEYQEDSDISSFFC [P10Y], the protein stability index worked out at 4.71.
The same measure for EIGTSDQIVWEYQEDSDISSFFC [P10W]: 4.52; for EIGTSDQIVMEYQEDSDISSFFC [P10M]: 5.19.
The same measure for EIGTSDQIVFEYQEDSDISSFFC [P10F]: 3.77; for EIGTSDQIVREYQEDSDISSFFC [P10R]: 5.56.
The same measure for EIGTSDQIVTEYQEDSDISSFFC [P10T]: 5.48; for EIGTSDQIVVEYQEDSDISSFFC [P10V]: 5.1.
Turning to EIGTSDQIVAEYQEDSDISSFFC [P10A], the protein stability index stood at 5.38.

Source of the values: the supplement of paper PMC10567573.
